Results reported in patent publication CN112500484A (MEDX TRANSLATIONAL MEDICINE CO LTD, dated 2021).

Target: T1, 人TROP2蛋白C端合成多肽 Arg299-Leu323, 裸肽 (not coupled to KLH) (human)
T1 construct: also called 抗原多肽
T1 peptide: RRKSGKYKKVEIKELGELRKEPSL
Experiment: indirect ELISA screen of transiently expressed antibodies

- binding result: binds
B1: MJ1-1抗体 (rabbit anti-human TROP2 monoclonal antibody) (antibody, V domains shown)
VH: QSVEESGGRLVTPGTPLTLTCTVSGIDLSSDAIFWVRQAPGEGLKYIGFIHPAGVTYYAAWARGRFTISRTSTTVDLKMTRLTTEDTATYFCGRYFGYASIDIWGPGTLVTVSS
VL: AQVLTQTPSSTSAAVGGTVTINCQSSQNVYDKNQLSWFQQKPGQPPKLLIYKASTLASGVPSRFSGSGSGTQFTLTISGVECDDAATYYCAGVYTGNIYTFGGGTEVVVKG
notes: also called MJ1-1单克隆抗体; 抗TROP2抗体
